# Data from patent US11279770 (MERUS N V, dated 2022).
# B1: PG2973 (antibody, IgG1, V domains shown)
# VH: QVQLKQSGAELVRPGASVKLSCKASGYIFTGYYINWLRQRPGQGLEWIAKIYPGSGNTYYNEKFRGKATLTAEESSSTAYMQLSSLTSEDSAVYFCARGPHYDYDGPWFVYWGQGTLVTVSS
# VL: not shown
# B2: PG2930 (antibody, IgG1, V domains shown)
# VH: EVQLQQSGAELVKPGASVMMSCKVSGYTFTSYPIAWMKQVHGKSLEWIGNFHPYSDDTKYNENFKGKATLTVEKSSSTVYLELSRLTSDDSAVYYCARSNPLYYFAMDYWGQGTSVTVSS
# VL: not shown
# notes: Monospecific IgG1; also called MF2930; copies: 2 + 2
# B3: PB3566 (MF3004xMF3178) (bispecific antibody, IgG1, V domains shown)
# VH 1: QVQLKQSGAELVRPGASVKLSCKASGYTFTGYYINWVKQRPGQGLEWIARIYPGSGYTYYNEKFKGKATLTAEESSSTAYMHLSSLTSEDSAVYFCARPHYGYDDWYFGVWGTGTTVTVSS
# VH 2: not shown
# VL: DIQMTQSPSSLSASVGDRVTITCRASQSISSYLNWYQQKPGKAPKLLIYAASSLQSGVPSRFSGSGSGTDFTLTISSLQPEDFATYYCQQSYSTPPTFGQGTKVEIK
# B4: PG3004 (antibody, IgG1, V domains shown)
# VH: B3 VH 1
# VL: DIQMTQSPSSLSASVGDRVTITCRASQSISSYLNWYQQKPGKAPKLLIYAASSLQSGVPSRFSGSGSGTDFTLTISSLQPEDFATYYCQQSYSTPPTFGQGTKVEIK
# B5: #Ab6 (antibody, V domains shown)
# VH: EVQLLESGGGLVQPGGSLRLSCAASGFTFSHYVMAWVRQAPGKGLEWVSSISSSGGWTLYADSVKGRFTISRDNSKNTLYLQMNSLRAEDTAVYYCTRGLKMATIFDYWGQGTLVTVSS
# VL: QSALTQPASVSGSPGQSITISCTGTSSDVGSYNVVSWYQQHPGKAPKLIIYEVSQRPSGVSNRFSGSKSGNTASLTISGLQTEDEADYYCCSYAGSSIFVIFGGGTKVTVL
# B6: PG3099 (antibody, IgG1, V domains shown)
# VH: EVQLQQPGAELVRPGTSVKLSCKASGYTFTSYWMHWVKQRPGQGLEWIGILDPSDSYTTYNQKFKGKATLTVDTSSSIAYMQLSSLTSEDSALYYCARGGDYDEGGAMDYWGQGTSVTVSS
# VL: not shown
# notes: Monospecific IgG1; also called MF3099; copies: 2 + 2
# B7: PB3448 (MF1849xMF3178) (bispecific antibody, IgG1, V domains shown)
# VH 1: QVQLVESGGGVVQPGRSLRLSCAASGFTFSSYGMHWVRQAPGKGLEWVAVISYDGSNKYYADSVKGRFTISRDNSKNTLYLQMNSLRAEDTAVYYCAKGDYGSYSSYAFDYWGQGTLVTVSS
# VH 2: not shown
# VL: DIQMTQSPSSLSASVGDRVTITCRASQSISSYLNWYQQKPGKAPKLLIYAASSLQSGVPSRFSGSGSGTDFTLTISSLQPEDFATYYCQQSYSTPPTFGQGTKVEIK
# notes: IgG1 bispecific with CH3 heterodimerisation mutations
# Experiments:
# [1] = molecular target: T1, human ErbB-2 (HER2) (human, UniProt P04626 23-1255); experiment: cell-based or functional assay
# [2] = molecular target: T1, human ErbB-2 (HER2); experiment: antigen titration ELISA: coated monomeric HER2 (ECD-Erbb-2) varied about 0.019-2.5 µg/ml (x axis), IgG fixed at 10 µg/ml as the text says; readout OD450 [lower panel]
# Method: Wells of the ELISA plates were blocked with PBS (pH 7.2) containing 5% BSA for 1 hour at 37° C. Selected antibodies were tested in duplo at a concentration of 10 µg/ml diluted in PBS-2% BSA and allowed to bind for 2 hours at 25° C. As a control the procedure was performed simultaneously with an antibody specific for the coated antigens and a negative control antibody. The ELISA plates were washed 5 times with PBS-T (PBS-0.05% v/v Tween 20). Bound IgG was detected with 1:2000 diluted IIRP-conjugate (Goat anti-mouse IgG, BD Biosciences) and was allowed to bind for 2 hours at 25° C. The ELISA plates were washed 5 times with PBS-T (PBS-0.05% Tween 20) and bound IgG was detected by means of OD492 nm measurement.
# [3] = molecular target: human HER2 and HER3 co-expressed on tumour cells (human, UniProt P04626 23-1255; P21860 20-1342); experiment: cell-based or functional assay
# [4] = molecular target: T2, human ErbB-3 (HER3) (human, UniProt P21860 20-1342); experiment: cell-based or functional assay
# [5] = molecular target: T2, human ErbB-3 (HER3); experiment: FACS on CHO-K1 cells with HER3 constructs; epitope group 3 = 'Reactivity to rat, cyno and human HER3' (Table 5)
# [6] = molecular target: T3, ErbB2-Fc (RND systems) (UniProt P04626 23-652); experiment: SPR (BIACORE T100), ErbB2-Fc on CM5 chip, bispecific as analyte, 1:1 monovalent model
# T3 construct: Bought protein; also called Fc-HER2; Her2-Fc; not shown: Fc part of the bought fusion protein
binder,measurement,setting,value
B1,"HRG dependent MCF-7 proliferation assay, % activity compared to #Ab6, 1 µg/ml IgG",[1],58%
same,"SKBR-3 proliferation assay, % activity compared to trastuzumab, 1 µg/ml IgG",[1],49%
B2,"HRG dependent MCF-7 proliferation assay, % activity compared to #Ab6, 1 µg/ml IgG",[1],7%
same,"SKBR-3 proliferation assay, % activity compared to trastuzumab, 1 µg/ml IgG",[1],0%
same,EC50 (read off the curve),[2],~0.7 µg/mL
B3,BxPC3 % Inhibition,[3],-20%
same,"MCF-7 IC50 (pM), HRG dependent proliferation",[3],7.9 pM
B4,"HRG dependent MCF-7 proliferation assay, % activity compared to #Ab6, 1 µg/ml IgG",[1],56%
same,"SKBR-3 proliferation assay, % activity compared to trastuzumab, 1 µg/ml IgG",[1],49%
B5,BxPC3 % Inhibition,[4],-7%
same,"MCF-7 IC50 (pM), HRG dependent proliferation",[4],504 pM
B6,binding result,[5],binds
B7,BxPC3 % Inhibition,[3],-22%
same,"MCF-7 IC50 (pM), HRG dependent proliferation",[3],371 pM
same,Kd,[6],5.4 nM
